Among the targets are cyno TNF-α (cynomolgus monkey, UniProt P79337 77-233); human TNF-α (human, UniProt P01375 77-233); human IL-6 (human, UniProt P05231 30-212).
What all share (assay): cell-based or functional assay
For a further assay, the target named is T1, cyno IL-6 (cynomolgus monkey, UniProt P79341 28-212, limits assumed).
T1 sequence (looked up): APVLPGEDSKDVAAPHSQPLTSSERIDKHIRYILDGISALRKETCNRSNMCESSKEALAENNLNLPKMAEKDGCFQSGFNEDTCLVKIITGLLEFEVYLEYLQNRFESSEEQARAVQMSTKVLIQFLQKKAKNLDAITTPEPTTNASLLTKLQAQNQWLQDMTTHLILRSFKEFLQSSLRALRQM

Sequence of cyno TNF-α (P79337 77-233 limits assumed): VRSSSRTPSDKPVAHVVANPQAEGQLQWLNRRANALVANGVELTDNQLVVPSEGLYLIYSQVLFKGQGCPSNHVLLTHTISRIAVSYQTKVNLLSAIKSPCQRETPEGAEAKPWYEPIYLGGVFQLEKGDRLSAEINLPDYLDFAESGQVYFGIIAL
Sequence of human TNF-α (P01375 77-233 limits assumed): as the sequence (P79337 77-233 limits assumed) above, with V37L, T44R, N72T, L138R counted along it

B1: F027201028 (bispecific antibody)
chain: DVQLVESGGGVVQPGGSLRLSCAASGRTFSNYAMAWFRQAPGKEREFVAVISYAGGRTYYADSVKGRFTISRDNAKNTVYLQMNSLRPEDTALYYCAAVDSPLIATHPRGYDYWGQGTLVTVSSGGGGSGGGSEVQLVESGGGVVQPGGSLRLSCAASGIIFSINAMGWYRQAPGKQRELVADIFPFGSTEYADSVKGRFTISRDNAKNTVYLQMNSLRPEDTALYYCHSYDPRGDDYWGQGTLVTVSSGGGGSGGGSEVQLVESGGGVVQPGGSLRLSCAASGFTFRSFGMSWVRQAPGKGPEWVSSISGSGSDTLYADSVKGRFTISRDNSKNTLYLQMNSLRPEDTALYYCTIGGSLSRSSQGTLVTVSSGGGGSGGGSEVQLVESGGGVVQPGGSLRLSCTASGFTFSTADMGWFRQAPGKGREFVARISGIDGTTYYDEPVKGRFTISRDNSKNTVYLQMNSLRPEDTALYYCRSPRYADQWSAYDYWGQGTLVKVSS
Consider B1, for which, in the assay with cyno TNF-α, the “Ratio IC50 cyno TNFα/hTNFα” value amounted to 3.1 ratio. In addition, in the assay with human TNF-α, the “IC50 hTNF-α Nfkb assay” value was found to be 0.061 nM. Besides, in the assay with human IL-6, the “IC50 hIL-6 TF1 proliferation assay” value was found to be 0.293 nM. In the assay with cyno IL-6, the “Ratio IC50 cyno IL-6/hIL-6” value was determined as 1.1 ratio.

B2: F027200989 (bispecific antibody)
chain: EVQLVESGGGVVQPGGSLRLSCTASGFTFSTADMGWFRQAPGKGREFVARISGIDGTTYYDEPVKGRFTISRDNSKNTVYLQMNSLRPEDTALYYCRSPRYADQWSAYDYWGQGTLVKVSSGGGGSGGGSEVQLVESGGGVVQPGGSLRLSCAASGFSLDYYGVGWFRQAPGKEREGVSCISSSEGDTYYADSVKGRFTISRDNAKNTVYLQMNSLRPEDTALYYCATDLSDYGVCSRWPSPYDYWGQGTLVKVSSGGGGSGGGSEVQLVESGGGVVQPGGSLRLSCAASGFTFRSFGMSWVRQAPGKGPEWVSSISGSGSDTLYADSVKGRFTISRDNSKNTLYLQMNSLRPEDTALYYCTIGGSLSRSSQGTLVTVSSGGGGSGGGSEVQLVESGGGVVQPGGSLRLSCAASGFTLAYYAIGWFRQAPGKEREGVSCISGSVGTTYYADSVKGRFTISRDNAKNTVYLQMNSLRPEDTALYYCVRSSWFDCGVQGRDLGNEYDYRGQGTLVTVSS
As to B2, the “IC50 hIL-6 TF1 proliferation assay” value with human IL-6 is 0.127 nM. The “Ratio IC50 cyno IL-6/hIL-6” value with cyno IL-6 is 38.3 ratio.

B3: F027200153 (bispecific antibody)
chain: EVQLVESGGGVVQPGGSLRLSCTASGFTFSTADMGWFRQAPGKGREFVARISGIDGTTYYDEPVKGRFTISRDNSKNTVYLQMNSLRPEDTALYYCRSPRYADQWSAYDYWGQGTLVKVSSGGGGSGGGSEVQLVESGGGVVQPGGSLRLSCAASGFTFRSFGMSWVRQAPGKGPEWVSSISGSGSDTLYADSVKGRFTISRDNSKNTLYLQMNSLRPEDTALYYCTIGGSLSRSSQGTLVTVSSGGGGSGGGSEVQLVESGGGVVQPGGSLRLSCAASGIIFSINAMGWYRQAPGKQRELVADIFPFGSTEYADSVKGRFTISRDNAKNTVYLQMNSLRPEDTALYYCHSYDPRGDDYWGQGTLVTVSSGGGGSGGGSEVQLVESGGGVVQPGGSLRLSCAASGRTFSSYVMGWFRQAPGKEREFVSTINWAGSRGYYADSVKGRFTISRDNAKNTVYLQMNSLRPEDTALYYCAASAGGFLVPRVGQGYDYWGQGTLVTVSS
On to B3, for which, in the assay with cyno TNF-α, the “Ratio IC50 cyno TNFα/hTNFα” value was 2.7 ratio. Also, in the assay with human TNF-α, the “IC50 hTNF-α Nfkb assay” value was 0.139 nM. In addition, the “IC50 hIL-6 TF1 proliferation assay” value with human IL-6 was 1.03 nM. In the assay with cyno IL-6, the “Ratio IC50 cyno IL-6/hIL-6” value was 2.5 ratio.

B4: F027200167 (bispecific antibody)
chain: EVQLVESGGGVVQPGGSLRLSCAASGIIFSINAMGWYRQAPGKQRELVADIFPFGSTEYADSVKGRFTISRDNAKNTVYLQMNSLRPEDTALYYCHSYDPRGDDYWGQGTLVTVSSGGGGSGGGSEVQLVESGGGVVQPGGSLRLSCAASGRTFSSYVMGWFRQAPGKEREFVSTINWAGSRGYYADSVKGRFTISRDNAKNTVYLQMNSLRPEDTALYYCAASAGGFLVPRVGQGYDYWGQGTLVTVSSGGGGSGGGSEVQLVESGGGVVQPGGSLRLSCAASGFTFRSFGMSWVRQAPGKGPEWVSSISGSGSDTLYADSVKGRFTISRDNSKNTLYLQMNSLRPEDTALYYCTIGGSLSRSSQGTLVTVSSGGGGSGGGSEVQLVESGGGVVQPGGSLRLSCTASGFTFSTADMGWFRQAPGKGREFVARISGIDGTTYYDEPVKGRFTISRDNSKNTVYLQMNSLRPEDTALYYCRSPRYADQWSAYDYWGQGTLVKVSS
On to B4, for which, in the assay with cyno TNF-α, the “Ratio IC50 cyno TNFα/hTNFα” value amounted to 3.1 ratio. In addition, in the assay with human TNF-α, the “IC50 hTNF-α Nfkb assay” value amounted to 0.171 nM. Also, the “IC50 hIL-6 TF1 proliferation assay” value in the assay with human IL-6 is 1.27 nM. In addition, the “Ratio IC50 cyno IL-6/hIL-6” value in the assay with cyno IL-6 came to 2.5 ratio.

B5: F027200987 (bispecific antibody)
chain: EVQLVESGGGVVQPGGSLRLSCAASGFSLDYYGVGWFRQAPGKEREGVSCISSSEGDTYYADSVKGRFTISRDNAKNTVYLQMNSLRPEDTALYYCATDLSDYGVCSRWPSPYDYWGQGTLVKVSSGGGGSGGGSEVQLVESGGGVVQPGGSLRLSCAASGFTFRSFGMSWVRQAPGKGPEWVSSISGSGSDTLYADSVKGRFTISRDNSKNTLYLQMNSLRPEDTALYYCTIGGSLSRSSQGTLVTVSSGGGGSGGGSEVQLVESGGGVVQPGGSLRLSCAASGFTLAYYAIGWFRQAPGKEREGVSCISGSVGTTYYADSVKGRFTISRDNAKNTVYLQMNSLRPEDTALYYCVRSSWFDCGVQGRDLGNEYDYRGQGTLVTVSSGGGGSGGGSEVQLVESGGGVVQPGGSLRLSCTASGFTFSTADMGWFRQAPGKGREFVARISGIDGTTYYDEPVKGRFTISRDNSKNTVYLQMNSLRPEDTALYYCRSPRYADQWSAYDYWGQGTLVKVSS
With B5, the “IC50 hIL-6 TF1 proliferation assay” value in the assay with human IL-6 came out at 0.143 nM. Also, in the assay with cyno IL-6, the “Ratio IC50 cyno IL-6/hIL-6” value is 29.4 ratio.

B6: F027201027 (bispecific antibody)
chain: DVQLVESGGGVVQPGGSLRLSCAASGRTFSNYAMAWFRQAPGKEREFVAVISYAGGRTYYADSVKGRFTISRDNAKNTVYLQMNSLRPEDTALYYCAAVDSPLIATHPRGYDYWGQGTLVTVSSGGGGSGGGSEVQLVESGGGVVQPGGSLRLSCAASGFTFRSFGMSWVRQAPGKGPEWVSSISGSGSDTLYADSVKGRFTISRDNSKNTLYLQMNSLRPEDTALYYCTIGGSLSRSSQGTLVTVSSGGGGSGGGSEVQLVESGGGVVQPGGSLRLSCAASGIIFSINAMGWYRQAPGKQRELVADIFPFGSTEYADSVKGRFTISRDNAKNTVYLQMNSLRPEDTALYYCHSYDPRGDDYWGQGTLVTVSSGGGGSGGGSEVQLVESGGGVVQPGGSLRLSCTASGFTFSTADMGWFRQAPGKGREFVARISGIDGTTYYDEPVKGRFTISRDNSKNTVYLQMNSLRPEDTALYYCRSPRYADQWSAYDYWGQGTLVKVSS
B6: the “Ratio IC50 cyno TNFα/hTNFα” value with cyno TNF-α was determined as 2.5 ratio. In addition, the “IC50 hTNF-α Nfkb assay” value with human TNF-α was determined as 0.0603 nM. Besides, in the assay with human IL-6, the “IC50 hIL-6 TF1 proliferation assay” value came out at 0.317 nM. In addition, the “Ratio IC50 cyno IL-6/hIL-6” value in the assay with cyno IL-6 came to 0.6 ratio.

B7: F027201026 (bispecific antibody)
chain: EVQLVESGGGVVQPGGSLRLSCTASGFTFSTADMGWFRQAPGKGREFVARISGIDGTTYYDEPVKGRFTISRDNSKNTVYLQMNSLRPEDTALYYCRSPRYADQWSAYDYWGQGTLVKVSSGGGGSGGGSEVQLVESGGGVVQPGGSLRLSCAASGFTFRSFGMSWVRQAPGKGPEWVSSISGSGSDTLYADSVKGRFTISRDNSKNTLYLQMNSLRPEDTALYYCTIGGSLSRSSQGTLVTVSSGGGGSGGGSDVQLVESGGGVVQPGGSLRLSCAASGRTFSNYAMAWFRQAPGKEREFVAVISYAGGRTYYADSVKGRFTISRDNAKNTVYLQMNSLRPEDTALYYCAAVDSPLIATHPRGYDYWGQGTLVTVSSGGGGSGGGSEVQLVESGGGVVQPGGSLRLSCAASGIIFSINAMGWYRQAPGKQRELVADIFPFGSTEYADSVKGRFTISRDNAKNTVYLQMNSLRPEDTALYYCHSYDPRGDDYWGQGTLVTVSS
B7: the “Ratio IC50 cyno TNFα/hTNFα” value with cyno TNF-α stood at 2.2 ratio. Also, the “IC50 hTNF-α Nfkb assay” value with human TNF-α stood at 0.0852 nM. Further, the “IC50 hIL-6 TF1 proliferation assay” value in the assay with human IL-6 came to 0.303 nM. In addition, the “Ratio IC50 cyno IL-6/hIL-6” value with cyno IL-6 turned out to be 1.2 ratio.

B8: F027200154 (bispecific antibody)
chain: EVQLVESGGGVVQPGGSLRLSCTASGFTFSTADMGWFRQAPGKGREFVARISGIDGTTYYDEPVKGRFTISRDNSKNTVYLQMNSLRPEDTALYYCRSPRYADQWSAYDYWGQGTLVKVSSGGGGSGGGSEVQLVESGGGVVQPGGSLRLSCAASGFTFRSFGMSWVRQAPGKGPEWVSSISGSGSDTLYADSVKGRFTISRDNSKNTLYLQMNSLRPEDTALYYCTIGGSLSRSSQGTLVTVSSGGGGSGGGSEVQLVESGGGVVQPGGSLRLSCAASGIIFSINAMGWYRQAPGKQRELVADIFPFGSTEYADSVKGRFTISRDNAKNTVYLQMNSLRPEDTALYYCHSYDPRGDDYWGQGTLVTVSSGGGGSGGGSDVQLVESGGGVVQPGGSLRLSCAASGRTFSNYAMAWFRQAPGKEREFVAVISYAGGRTYYADSVKGRFTISRDNAKNTVYLQMNSLRPEDTALYYCAAVDSPLIATHPRGYDYWGQGTLVTVSS
For the molecule B8, the “Ratio IC50 cyno TNFα/hTNFα” value with cyno TNF-α is 2.8 ratio. Also, the “IC50 hTNF-α Nfkb assay” value with human TNF-α was 0.164 nM. Further, the “IC50 hIL-6 TF1 proliferation assay” value with human IL-6 came to 0.415 nM. Besides, the “Ratio IC50 cyno IL-6/hIL-6” value with cyno IL-6 came to 2.1 ratio.

B9: F027200168 (bispecific antibody)
chain: EVQLVESGGGVVQPGGSLRLSCAASGIIFSINAMGWYRQAPGKQRELVADIFPFGSTEYADSVKGRFTISRDNAKNTVYLQMNSLRPEDTALYYCHSYDPRGDDYWGQGTLVTVSSGGGGSGGGSEVQLVESGGGVVQPGGSLRLSCAASGFTFRSFGMSWVRQAPGKGPEWVSSISGSGSDTLYADSVKGRFTISRDNSKNTLYLQMNSLRPEDTALYYCTIGGSLSRSSQGTLVTVSSGGGGSGGGSEVQLVESGGGVVQPGGSLRLSCAASGRTFSSYVMGWFRQAPGKEREFVSTINWAGSRGYYADSVKGRFTISRDNAKNTVYLQMNSLRPEDTALYYCAASAGGFLVPRVGQGYDYWGQGTLVTVSSGGGGSGGGSEVQLVESGGGVVQPGGSLRLSCTASGFTFSTADMGWFRQAPGKGREFVARISGIDGTTYYDEPVKGRFTISRDNSKNTVYLQMNSLRPEDTALYYCRSPRYADQWSAYDYWGQGTLVKVSS
B9: the “Ratio IC50 cyno TNFα/hTNFα” value in the assay with cyno TNF-α was found to be 3.3 ratio. Also, the “IC50 hTNF-α Nfkb assay” value in the assay with human TNF-α was found to be 0.14 nM. In the assay with human IL-6, the “IC50 hIL-6 TF1 proliferation assay” value was 0.966 nM. In the assay with cyno IL-6, the “Ratio IC50 cyno IL-6/hIL-6” value is 1.6 ratio.

For the origin of these results see US20240301049A1 (Ablynx, published 2024).
